Source: patent publication US20260242735A1 (UNIVERSIT T BASEL, published 2026)

Legend:
Assay in all cases: flow cytometry on HEK293-T, alanine scan
[1] = molecular target: human CD33 F118A (human, UniProt P20138 18-364)
[2] = molecular target: human CD33 K130A (human, UniProt P20138 18-364)
[3] = molecular target: human CD33 L93A (human, UniProt P20138 18-364)
[4] = molecular target: human CD33 L161A (human, UniProt P20138 18-364)
[5] = molecular target: human CD33 S97A (human, UniProt P20138 18-364)
human CD33 S97A, sequence (P20138 18-364 S97A limits assumed): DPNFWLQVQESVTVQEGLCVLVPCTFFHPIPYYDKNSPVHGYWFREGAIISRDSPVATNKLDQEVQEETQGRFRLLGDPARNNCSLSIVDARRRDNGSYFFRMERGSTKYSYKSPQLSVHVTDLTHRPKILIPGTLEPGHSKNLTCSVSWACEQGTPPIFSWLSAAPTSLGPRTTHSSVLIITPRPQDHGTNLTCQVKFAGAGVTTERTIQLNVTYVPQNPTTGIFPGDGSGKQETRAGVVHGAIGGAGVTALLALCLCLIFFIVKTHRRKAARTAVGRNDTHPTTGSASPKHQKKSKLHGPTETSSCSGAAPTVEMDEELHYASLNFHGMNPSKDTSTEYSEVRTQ

[6] = molecular target: human CD33 S115A (human, UniProt P20138 18-364)
human CD33 S115A, sequence (P20138 18-364 S115A limits assumed): as the sequence (P20138 18-364 S97A limits assumed) above, with A80S, S98A counted along it

[7] = molecular target: human CD33 R98A (human, UniProt P20138 18-364)
human CD33 R98A, sequence (P20138 18-364 R98A limits assumed): as the sequence (P20138 18-364 S97A limits assumed) above, with A80S, R81A counted along it

[8] = molecular target: human CD33 I147A (human, UniProt P20138 18-364)
human CD33 I147A, sequence (P20138 18-364 I147A limits assumed): as the sequence (P20138 18-364 S97A limits assumed) above, with A80S, I130A counted along it

[9] = molecular target: human CD33 L148A (human, UniProt P20138 18-364)
human CD33 L148A, sequence (P20138 18-364 L148A limits assumed): as the sequence (P20138 18-364 S97A limits assumed) above, with A80S, L131A counted along it

[10] = molecular target: human CD33 P155A (human, UniProt P20138 18-364)
human CD33 P155A, sequence (P20138 18-364 P155A limits assumed): as the sequence (P20138 18-364 S97A limits assumed) above, with A80S, P138A counted along it

[11] = molecular target: human CD33 S128A (human, UniProt P20138 18-364)
human CD33 S128A, sequence (P20138 18-364 S128A limits assumed): as the sequence (P20138 18-364 S97A limits assumed) above, with A80S, S111A counted along it

[12] = molecular target: human CD33 R109A (human, UniProt P20138 18-364)
human CD33 R109A, sequence (P20138 18-364 R109A limits assumed): as the sequence (P20138 18-364 S97A limits assumed) above, with A80S, R92A counted along it

[13] = molecular target: human CD33 N99A (human, UniProt P20138 18-364)
human CD33 N99A, sequence (P20138 18-364 N99A limits assumed): as the sequence (P20138 18-364 S97A limits assumed) above, with A80S, N82A counted along it

[14] = molecular target: human CD33 K146A (human, UniProt P20138 18-364)
human CD33 K146A, sequence (P20138 18-364 K146A limits assumed): as the sequence (P20138 18-364 S97A limits assumed) above, with A80S, K129A counted along it

[15] = molecular target: human CD33 R119A (human, UniProt P20138 18-364)
human CD33 R119A, sequence (P20138 18-364 R119A limits assumed): as the sequence (P20138 18-364 S97A limits assumed) above, with A80S, R102A counted along it

[16] = molecular target: human CD33 S158A (human, UniProt P20138 18-364)
human CD33 S158A, sequence (P20138 18-364 S158A limits assumed): as the sequence (P20138 18-364 S97A limits assumed) above, with A80S, S141A counted along it

[17] = molecular target: human CD33 K126A (human, UniProt P20138 18-364)
human CD33 K126A, sequence (P20138 18-364 K126A limits assumed): as the sequence (P20138 18-364 S97A limits assumed) above, with A80S, K109A counted along it

[18] = molecular target: human CD33 E154A (human, UniProt P20138 18-364)
human CD33 E154A, sequence (P20138 18-364 E154A limits assumed): as the sequence (P20138 18-364 S97A limits assumed) above, with A80S, E137A counted along it

[19] = molecular target: human CD33 S124A (human, UniProt P20138 18-364)
human CD33 S124A, sequence (P20138 18-364 S124A limits assumed): as the sequence (P20138 18-364 S97A limits assumed) above, with A80S, S107A counted along it

[20] = molecular target: human CD33 Y127A (human, UniProt P20138 18-364)
human CD33 Y127A, sequence (P20138 18-364 Y127A limits assumed): as the sequence (P20138 18-364 S97A limits assumed) above, with A80S, Y110A counted along it

[21] = molecular target: human CD33 S166A (human, UniProt P20138 18-364)
human CD33 S166A, sequence (P20138 18-364 S166A limits assumed): as the sequence (P20138 18-364 S97A limits assumed) above, with A80S, S149A counted along it

[22] = molecular target: human CD33 V136A (human, UniProt P20138 18-364)
human CD33 V136A, sequence (P20138 18-364 V136A limits assumed): as the sequence (P20138 18-364 S97A limits assumed) above, with A80S, V119A counted along it

[23] = molecular target: human CD33 G156A (human, UniProt P20138 18-364)
human CD33 G156A, sequence (P20138 18-364 G156A limits assumed): as the sequence (P20138 18-364 S97A limits assumed) above, with A80S, G139A counted along it

[24] = molecular target: human CD33 T152A (human, UniProt P20138 18-364)
human CD33 T152A, sequence (P20138 18-364 T152A limits assumed): as the sequence (P20138 18-364 S97A limits assumed) above, with A80S, T135A counted along it

[25] = molecular target: human CD33 P132A (human, UniProt P20138 18-364)
human CD33 P132A, sequence (P20138 18-364 P132A limits assumed): as the sequence (P20138 18-364 S97A limits assumed) above, with A80S, P115A counted along it

[26] = molecular target: human CD33 D112A (human, UniProt P20138 18-364)
human CD33 D112A, sequence (P20138 18-364 D112A limits assumed): as the sequence (P20138 18-364 S97A limits assumed) above, with A80S, D95A counted along it

[27] = molecular target: human CD33 R111A (human, UniProt P20138 18-364)
human CD33 R111A, sequence (P20138 18-364 R111A limits assumed): as the sequence (P20138 18-364 S97A limits assumed) above, with A80S, R94A counted along it

[28] = molecular target: human CD33 T125A (human, UniProt P20138 18-364)
human CD33 T125A, sequence (P20138 18-364 T125A limits assumed): as the sequence (P20138 18-364 S97A limits assumed) above, with A80S, T108A counted along it

[29] = molecular target: human CD33 N100A (human, UniProt P20138 18-364)
human CD33 N100A, sequence (P20138 18-364 N100A limits assumed): as the sequence (P20138 18-364 S97A limits assumed) above, with A80S, N83A counted along it

[30] = molecular target: human CD33 P96A (human, UniProt P20138 18-364)
human CD33 P96A, sequence (P20138 18-364 P96A limits assumed): as the sequence (P20138 18-364 S97A limits assumed) above, with P79A, A80S counted along it

[31] = molecular target: human CD33 W167A (human, UniProt P20138 18-364)
human CD33 W167A, sequence (P20138 18-364 W167A limits assumed): as the sequence (P20138 18-364 S97A limits assumed) above, with A80S, W150A counted along it

[32] = molecular target: human CD33 E121A (human, UniProt P20138 18-364)
human CD33 E121A, sequence (P20138 18-364 E121A limits assumed): as the sequence (P20138 18-364 S97A limits assumed) above, with A80S, E104A counted along it

[33] = molecular target: human CD33 I149A (human, UniProt P20138 18-364)
human CD33 I149A, sequence (P20138 18-364 I149A limits assumed): as the sequence (P20138 18-364 S97A limits assumed) above, with A80S, I132A counted along it

[34] = molecular target: human CD33 V106A (human, UniProt P20138 18-364)
human CD33 V106A, sequence (P20138 18-364 V106A limits assumed): as the sequence (P20138 18-364 S97A limits assumed) above, with A80S, V89A counted along it

[35] = molecular target: human CD33 S102A (human, UniProt P20138 18-364)
human CD33 S102A, sequence (P20138 18-364 S102A limits assumed): as the sequence (P20138 18-364 S97A limits assumed) above, with A80S, S85A counted along it

human CD33 L93A, sequence (P20138 18-364 L93A limits assumed): as the sequence (P20138 18-364 S97A limits assumed) above, with L76A, A80S counted along it
human CD33 L161A, sequence (P20138 18-364 L161A limits assumed): as the sequence (P20138 18-364 S97A limits assumed) above, with A80S, L144A counted along it
human CD33 F118A, sequence (P20138 18-364 F118A limits assumed): as the sequence (P20138 18-364 S97A limits assumed) above, with A80S, F101A counted along it
human CD33 K130A, sequence (P20138 18-364 K130A limits assumed): as the sequence (P20138 18-364 S97A limits assumed) above, with A80S, K113A counted along it

B1: Refmab #4 (antibody, V domains shown)
VH: QVQLVQSGAEVKKPGESVKVSCKASGYTFTNYGMNWVKQAPGQGLEWMGWINTYTGEPTYADKFQGRVTMTTDTSTSTAYMEIRNLGGDDTAVYYCARWSWSDGYYVYFDYWGQGTSVTVSS
VL: DIVMTQSPDSLTVSLGERTTINCKSSQSVLDSSTNKNSLAWYQQKPGQPPKLLLSWASTRESGIPDRFSGSGSGTDFTLTIDSPQPEDSATYYCQQSAHFPITFGQGTRLEIK
notes: The alanine scan used IgG or Fab
Mean % WT Binding [1]: 6 % WT binding | Mean % WT Binding [2]: 180 % WT binding | Mean % WT Binding [3]: 63.9 % WT binding | Mean % WT Binding [4]: 114 % WT binding | Mean % WT Binding [5]: 121 % WT binding | Mean % WT Binding [6]: 36.4 % WT binding | Mean % WT Binding [7]: 128 % WT binding | Mean % WT Binding [8]: 58.7 % WT binding | Mean % WT Binding [9]: 113 % WT binding | Mean % WT Binding [10]: 111 % WT binding | Mean % WT Binding [11]: 184 % WT binding | Mean % WT Binding [12]: 99.5 % WT binding | Mean % WT Binding [13]: 43.5 % WT binding | Mean % WT Binding [14]: 122 % WT binding | Mean % WT Binding [15]: 138 % WT binding | Mean % WT Binding [16]: 98 % WT binding | Mean % WT Binding [17]: 212 % WT binding | Mean % WT Binding [18]: 84.4 % WT binding | Mean % WT Binding [19]: 58.8 % WT binding | Mean % WT Binding [20]: 300 % WT binding | Mean % WT Binding [21]: 110 % WT binding | Mean % WT Binding [22]: 47.7 % WT binding | Mean % WT Binding [23]: 67.2 % WT binding | Mean % WT Binding [24]: 110 % WT binding | Mean % WT Binding [25]: 70.1 % WT binding | Mean % WT Binding [26]: 36 % WT binding | Mean % WT Binding [27]: 94.3 % WT binding | Mean % WT Binding [28]: 218 % WT binding | Mean % WT Binding [29]: 123 % WT binding | Mean % WT Binding [30]: 27.4 % WT binding | Mean % WT Binding [31]: 112 % WT binding | Mean % WT Binding [32]: 77.3 % WT binding | Mean % WT Binding [33]: 99.9 % WT binding | Mean % WT Binding [34]: 110 % WT binding | Mean % WT Binding [35]: 73.6 % WT binding
